{"source": "the supplement of paper PMC7125110", "parents": {"B1": {"name": "glmS ribozyme (parent)", "chain": "AUAAAAGCGCCAGAACUACAGAAAUGUAGUUGACGAGGAGGAGGUUUAUCGAAUUUUCGGCGGAUGCCUCCAAA"}}, "note": "± gives the standard error. Fewer inactive variants are shown than the library holds."}
{"variants_of": "B1", "experiment": "self-cleavage kobs at 10000 uM GlcN6P; higher = faster cleavage; RNA array", "conditions": "with glucosamine-6-phosphate", "method_in_brief": "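On sequenced MiSeq chips, barcoded ribozyme variants were made in situ by E. coli RNA polymerase and followed at 37 °C through a hybridised Cy3 probe. Glucosamine-6-phosphate was flowed in at 40 μM to 10 mM in HEPES/KCl/Mg(OAc)2 buffer. Exponential fits to normalised per-tile medians gave kobs, and weighted Michaelis–Menten fits gave kcat and KM.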", "units": {"self-cleavage kobs at 10000 uM GlcN6P": "s⁻¹"}}
{"variant": "AUAAAAGCGCCUGAACUACAGAAAUGUAGUUGACGAGGAGGAGAUUUAUCGUAUUUUCGGCGGAUGCCUCCAAA", "note": "[A12U G44A A52U]", "self-cleavage kobs at 10000 uM GlcN6P": "4.81e-05 ± 2e-05"}
{"variant": "AUAAAAGCGCCAGCACUACAGAAAUGUAGUUGACGAGGAGGAGGUUUAUCGGAUUUUCGGAGGAUGCCUCCAAA", "note": "[A14C A52G C61A]", "self-cleavage kobs at 10000 uM GlcN6P": "< 1e-05"}
{"variant": "AUAAAAGCGCCUGAACUACAGAAAUGUAGUUGACGAGGAGGAGGUUGAUCGUAUUUUCGGCGGAUGCCGCCAAA", "note": "[A12U U47G A52U U69G]", "self-cleavage kobs at 10000 uM GlcN6P": "6.72e-05 ± 3e-05"}
{"variant": "AUAAAAGCGCCAGUACUACAGAAAUGUAGUUGACGAGGAGGAGGUUUCUCGAAUUGUCGGCGGAUGCAUCCAAA", "note": "[A14U A48C U56G C68A]", "self-cleavage kobs at 10000 uM GlcN6P": "< 1e-05"}
{"variant": "AUAAAAGCGCCUGAACUACAGAAAUGUAAUUGACGAGGAGGAGGUUUAUCGAAUUUUCGGCGGAUGCCUACAAA", "note": "[A12U G29A C70A]", "self-cleavage kobs at 10000 uM GlcN6P": "9.81e-05 ± 2.5e-05"}
{"variant": "AUAAAAGCGCCAGGACUACAGAAAUGUAGUUGACGAGGAGGAGCUUUAUCGAAUGUUCGGCGGAUGUCUCCAAA", "note": "[A14G G44C U55G C67U]", "self-cleavage kobs at 10000 uM GlcN6P": "0.000221 ± 4.1e-05"}
{"variant": "AUAAAAGCGCCAGUACUACAGAAAUGUAGUUGACGAGGAGGAGGUUUAUCGAAUCUUCGGCGGAUGACUAUAAA", "note": "[A14U U55C C67A C70A C71U]", "self-cleavage kobs at 10000 uM GlcN6P": "< 1e-05"}
{"variant": "AUAAAAGCGCCAGGACUACAGAAAUGUAGUUGACGAGGACGAGGUUUAGGCAAUUUUCGGCGGAUGCCUCCAAA", "note": "[A14G G40C U49G C50G G51C]", "self-cleavage kobs at 10000 uM GlcN6P": "< 1e-05"}
{"variant": "AUAAAAGCGCCAGUACUACAGAAAUGUAGUUGACGAGGCGGAGGUUUAUCGAAUUUUCGGCGGACGCCUCCAAA", "note": "[A14U A39C U65C]", "self-cleavage kobs at 10000 uM GlcN6P": "6.04e-05 ± 1.6e-05"}
{"variant": "AUAAAAGCGCCAGCACUACAGAAAUGUAGUUGACGAGCAGGAGGUUUAUCGAAUUUUCGUCGGAUGCCUCCAAA", "note": "[A14C G38C G60U]", "self-cleavage kobs at 10000 uM GlcN6P": "< 1e-05"}
{"variant": "AUAAAAGCGCCAGUACUACAGAAAUGUAGUUGACGAGGAGGAGGUUUAUCGAAUUUUCGGCGGCUGCCUCCAAA", "note": "[A14U A64C]", "self-cleavage kobs at 10000 uM GlcN6P": "2.75e-05 ± 1.3e-05"}
{"variant": "AUAAAAGCGCCAGGACUACAGAAAUGUAGUUGACGAGGAGGAGGUUUAUCGAAUUUUCGGCGGGUGCGUCCAAA", "note": "[A14G A64G C68G]", "self-cleavage kobs at 10000 uM GlcN6P": "< 1e-05"}
{"variant": "AUAAAAGCGCCAGUACUACAGAAAUGUAGUUGACGAGGAGGAGGUUUAUCGAUUUGUUGGCGGAUGCCUCCAAA", "note": "[A14U A53U U56G C58U]", "self-cleavage kobs at 10000 uM GlcN6P": "3.75e-05 ± 8.7e-06"}
{"variant": "AUAAAAGCGCCAGGACUACAGAAAUGUAGGUGACGAGGAGGAGGUUCAUCGAAUUUUCGGCGGAUGCCUCCAAA", "note": "[A14G U30G U47C]", "self-cleavage kobs at 10000 uM GlcN6P": "0.00168 ± 0.00041"}
{"variant": "AUAAAAGCGCCAGCACUACAGAAAUGUAGUUGACGAGGAGGAGGUUUCUCGAAUUUUCUGCGGAUGCCUCCAAA", "note": "[A14C A48C G59U]", "self-cleavage kobs at 10000 uM GlcN6P": "< 1e-05"}
{"variant": "AUAAAAGCGCCAGUACUACAGAAAUGUAGGUGACGAGGAGGAGGUUUAUCGAAUGUUCGGCGGAUGCCUACAAA", "note": "[A14U U30G U55G C70A]", "self-cleavage kobs at 10000 uM GlcN6P": "3.35e-05 ± 1.5e-05"}
{"variant": "AUAAAAGCGCCACAACUACAGAAAUGUAGUUGACGAGGAGGAGGUUUAUCGAAUUUUCGGCGGAAGCCUCCAAA", "note": "[G13C U65A]", "self-cleavage kobs at 10000 uM GlcN6P": "< 1e-05"}
{"variant": "AUAAAAGCGCCAAAACUACAGAAAUGUAGUUGACGAGGAGGAUGGUUAUCGAAUUUUCGGCGGAUGCCUCCAAA", "note": "[G13A G43U U45G]", "self-cleavage kobs at 10000 uM GlcN6P": "6.53e-05 ± 2.3e-05"}
{"variant": "AUAAAAGCGCCAAAACUACAGAAAUGUAGUUGACUACGAGGAGGUUUAUCGAAUUUUCGGCGGAUGCCUCCAAA", "note": "[G13A G35U G37C]", "self-cleavage kobs at 10000 uM GlcN6P": "< 1e-05"}
{"variant": "AUAAAAGCGCCAGGACUACAGAAAUGUAGUUGACGCGGAGGAGGUUUAUCGAAAUUUCGGCGUAUGCCUCCAAA", "note": "[A14G A36C U54A G63U]", "self-cleavage kobs at 10000 uM GlcN6P": "< 1e-05"}
{"variant": "AUAAAAGCGCCUGAACUACAGAAAUGUAGUUGACGAGGACUAGGUUUAUCGAAUUUUCGGCGGAUGCCUCCAAA", "note": "[A12U G40C G41U]", "self-cleavage kobs at 10000 uM GlcN6P": "6.81e-05 ± 1.9e-05"}
{"variant": "AUAAAAGCGCCAAAACUACAGAAAUGUAGUUGACGAGGAGGAGGUUUAUGGAAUUUUCGGCGGAUUCCUCCAAA", "note": "[G13A C50G G66U]", "self-cleavage kobs at 10000 uM GlcN6P": "6.48e-05 ± 2.1e-05"}
{"variant": "AUAAAAGCGCCACAACUACAGAAAUGUAGUUGACGCGGAGGAGGUUUAUCGAACUUUCGGCGGAUGCCUCCAAA", "note": "[G13C A36C U54C]", "self-cleavage kobs at 10000 uM GlcN6P": "< 1e-05"}
{"variant": "AUAAAAGCGCCAGGACUACAGAAAUGUAGUUGACGAGGAGGAGGUUUAUGGAAUUUUCGGCGGAUGCCUUCAAA", "note": "[A14G C50G C70U]", "self-cleavage kobs at 10000 uM GlcN6P": "9.53e-05 ± 1.4e-05"}
{"variant": "AUAAAAGCGCCAGUACUACAGAAAUGUAGUUGACGACGAGGAGGUUUAUCGAAUUUUCCGCGGAUGUCUCCAAA", "note": "[A14U G37C G59C C67U]", "self-cleavage kobs at 10000 uM GlcN6P": "< 1e-05"}
{"variant": "AUAAAAGCGCCACAUCUACAGAAAUGUAGUUGACGAGGAGGAGGUUUAUCGAAUUUUGGGCGGAUGCCUCCAAA", "note": "[G13C A15U C58G]", "self-cleavage kobs at 10000 uM GlcN6P": "0.000104 ± 1.7e-05"}
{"variant": "AUAAAAGCGCCACAACUACAGAAAUGUAGUUGACGAGGAGGAGGUUUAGCGAAUUUUCUGCGGAUGCCUCCAAA", "note": "[G13C U49G G59U]", "self-cleavage kobs at 10000 uM GlcN6P": "< 1e-05"}
{"variant": "AUAAAAGCGCCAGUACUACAGAAAUGUAGUUGACGCGGAGGAGGUUUGUCGAAUUUUCGGUGGAUGCCUCCAAA", "note": "[A14U A36C A48G C61U]", "self-cleavage kobs at 10000 uM GlcN6P": "< 1e-05"}
{"variant": "AUAAAAGCGCCAGUACUACAGAAAUGUAGUUGACGAGGAGGAUGUUUAUCAAAUUUUCGGCGGAUGCCUCCAAA", "note": "[A14U G43U G51A]", "self-cleavage kobs at 10000 uM GlcN6P": "< 1e-05"}
{"variant": "AUAAAAGCGCCAGGACUACAGAAAUGUAGAUGACGAGGAGUAGGUUUAUCGAAUUUUCGGCGGAUGCAUCCAAA", "note": "[A14G U30A G41U C68A]", "self-cleavage kobs at 10000 uM GlcN6P": "< 1e-05"}
{"variant": "AUAAAAGCGCCAAAACUACAGAAAUGUAGUUGACGAGGAGGAGGUAUAUCGAAUUUUCGGCGGAUGCCUCCAAA", "note": "[G13A U46A]", "self-cleavage kobs at 10000 uM GlcN6P": "4.05e-05 ± 1.3e-05"}
{"variant": "AUAAAAGCGCCAGACCUACAGAAAUGUAGUUGUCGAGGAGGAGGUUCAUCGAAUUUGCGGCGGAUGCUCCCAAA", "note": "[A15C A33U U47C U57G C68U U69C]", "self-cleavage kobs at 10000 uM GlcN6P": "< 1e-05"}
{"variant": "AUAAAAGCGCCAGCACUACAGAAAUGUAGUUGACGAGGAGCAGGUUUAUCGAAUUUUCGGCGGAUGCCUCCAAA", "note": "[A14C G41C]", "self-cleavage kobs at 10000 uM GlcN6P": "3.51e-05 ± 1.1e-05"}
{"variant": "AUAAAAGCGCCAGUACUACAGAAAUGUAGUUGACGAGGAGGAGGUUUAUCGACUUUUCGGCGGAUGUCUCCAAA", "note": "[A14U A53C C67U]", "self-cleavage kobs at 10000 uM GlcN6P": "0.000208 ± 3.8e-05"}
{"variant": "AUAAAAGCGCCAUAACUACAGAAAUGUAGAUGACGAGGAGGACGUUUAUCGAAUUUUCGGCGGAUGCCUCCAAA", "note": "[G13U U30A G43C]", "self-cleavage kobs at 10000 uM GlcN6P": "< 1e-05"}
{"variant": "AUAAAAGCGCCUGAACUACAGAAAUGUAGUUGACGAGGAUGAGGUUUAUCGAAAUUUCGGCGGAUGCCUCCAAA", "note": "[A12U G40U U54A]", "self-cleavage kobs at 10000 uM GlcN6P": "0.000861 ± 0.00024"}
{"variant": "AUAAAAGCGCCUGAACUACAGAAAUGUAGUUGACGAGGAGGAGGUUUAUGGAAUUUUCGGCAGAUGCCUCUAAA", "note": "[A12U C50G G62A C71U]", "self-cleavage kobs at 10000 uM GlcN6P": "8.18e-05 ± 2.2e-05"}
